Reference: the nanobody polyreactivity screen of Harvey et al. (2022)

Test: yeast display, Sf9 membrane polyspecificity reagent, FACS + sequencing; frameworks hold sequencing errors
Method in brief: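 After 36–48 hours of galactose induction, yeast (Saccharomyces cerevisiae BJ5465) displaying a synthetic nanobody library were stained at 4 °C for 1 hour with 10% biotinylated, detergent-solubilized Sf9 membrane reagent. Streptavidin microbeads enriched the stained cells before FACS sorting into low and high (top ~1%) gates on anti-HA and streptavidin fluorescence. Each clone's polyreactivity label reflects its gate of origin.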

Sequence	polyreactivity (PSR sort gate)
QVQLVESVGGLVQAGGRLRLSCAASAFIFTSYAMGLYRQAPGKDRELVAAISKRGGSTYYADSVKGRFTISRDYAKNTDYLQMHSLKPEDTAVYYCATRYPQPYSPGYSYDYWGQGTQVTVSS	high polyreactivity
QVQLVESGGGLVQAGGSLRLSCAASGSIFPAYTMGWYRQAPGKERELVAAIPYSGARSTYYADSVKGRVTNSRDNAKNTVYLQMNSLKPEDTAVYYCNARDRARYFYDMDYWGQGTQVTVSS	low polyreactivity
QVQLVESGGRLRQAGGSLRLSCAASGSTFVSYAMGWYRQAPGKERELVAAISTSGGRSYYADSVKGRFTISRDNAKNTVYLQMNSLKREDTAVYYCAAEHYQRWWPYWYWPYYWGQGTQVTVSS	high polyreactivity
QVQLVESGGGLVQAGGSLRLSCAASGRIFPTYTMGWYRQAPGKERELVAAISGRGGNTYYADSVKGRFTISRDNAKNTVYLQMNSLKPEDTAVYYCAARYPVRNGYWGQGTQVTVSS	high polyreactivity
QVQLVESGGGLVQAGGSLRLSCAASGRIIYIYAMGWYRQAPGKERELVAAITASSGSTNYADSVKGRFTISRDNAKNTVYLQMNSLKPEDTAVYYCAAAPSRTLLRQSKYYYWGQGTQVTVSS	low polyreactivity
QVQLVESGGCLVQAGGSLRLSCAASRSTFSYNAMGWYRHAPRKERELVASSSTSGGSTYYADSVKGRFSISRDNAKNTVYLQINSLTPEDTAVYYCNAPTSDIYSDFDYWGQGTQVTVSS	low polyreactivity
QVQLVESGGGLVQAGGSLRLSCAASGSIFYWYAMGWYRQAPGKERELVAAITYSGDRTYYADSVKGRFTISRDNAKNTVYLQMNSLKPEDTAVYYCAKDRGSGPLDYWGQGTQVTVSS	low polyreactivity
QVQLVESGGGLVQAGGSLRLSCAASGGIFWANAMGWHRQAPRKERELVATIHTIGDGTNYADSVKGRFTISRDNAKNTVYLQMNSLKPEDTAVYYCAAPYYYFAVYYGYIFEYDYWGQGTQVTVSS	low polyreactivity
QVQLVESGGGLVQAGGSLRLSCAASGSIFNYYAMGWYRQAPGKERDLVAAITTSGGNTYYADSVKGRFTISRDNAKNTVYLLMYSLKPEDTAVYYCAADYWASGGEYDYWGQGTQVSVSS	low polyreactivity
QVQLVESGGGLVQAGGSLRLSCAASGSIFEYYTMGWYRQAPGKERELVAGISWSGGSTYYADSVKGRFTISRDNAKNTVYLQMNSLKPEDTAVYYCAARSRSGRQEYYYWGQGTQVTVSS	high polyreactivity
QVQLVESGGGLVQAGGSLRLSCAASGNIFRGYTMGWYRQAPGKERELVATITWNGVSTFYADSVKGRFTISRDNAKNTVYLQMNSLKPEDTAVYYCAAYYPSHDYSGFWSDTYEYWGQVTQVTVSS	low polyreactivity
QVQLVESGGGLVQAGGSLRLSCAASGSILESNVMGWYRQAPGKERELVASISSSGDSTYADSVKGRFTISRDNAKNTVYLQMNRLKPEDTAVYYCASDRLYWTYALYYWGQGTQVNVSS	low polyreactivity
QVQLVESGGGLVQAGGSLRLSCAASGRIFTTYAMGWYRQAPGKERELVAAISRSGGSTYYADSVKGRFTISRDNAKNTVYLQMTSLNPEDTAVYYCAAVPTSNSFRSSFYYWGQGTQVTVSS	high polyreactivity
QVQLVESGGGLVQAGGSLRLSCAASGIIFGWYAMGWYRQAPGKERELVAAISYSGGSTYYADSVKGRFTISRDNAKNTVYLQMNSLKPEDTAVYYCAVQRYWGQGTQVTVSS	high polyreactivity
QVHLVESGGGLVQAGGSLRLSCAASGSIFFNNAMGWYRQPPGKERELVAAINYGNGSTYYADSVKGRFTISRDNAKNTVYLQMNSLKPEDTAVYYCNADYTGTRSDSVTPEYEYWGQGTQVTVSS	low polyreactivity
QVQLEESGGGLVQAGGSLRLSCAASGSIFSTYAMGWYRQAPGKERELVSAINSGDSTSYADSVKGRFTISRDNAKNTVYLQRNSLKPEDTAVYYCAAKTGGYWYLRRTGRYESWGQGTQVTVSS	low polyreactivity
QVQLVESGGGLVQAGGSLRLICAASGSTFFANAMGWYRPAPGKERELVAVITYSGGSTYYADSVKGRFTISRYNAKNTVYLQMNSLKPEDTAVDYCAAKSYFRPYSYSYSYWGQGTQVTVSS	high polyreactivity
QVQLVESVGGLDQAGGSLRLTCAASVSIFRNYAMGWYRQAPGKERELVASIRYSGGRTNYADSVKGRFTISRDNAKNTVYVPMNSLTPEDTAVYYCAAATHYWYFYSFKDKSGFRGYYWGQGTHVTVSS	high polyreactivity
QVELVESAGGLVQAGGSLRLSCAASGRIFAYNAMGWYRQAPGKERELVAAISQSGGSTYYADSVKGRFTISRANAKNTVYLQLNSLKPEDTAVYYCHAVYGRQYRGYNYKYYYWGQGTQVTVSS	high polyreactivity
QVQLVESGGGLVQAGGSLRLSCAASGSTLVTNAMGWYRQAPGKERELVAAITFSGGTTYYADSVKGRFTISRDNAKNTVYLQMNSLKPEDTAVYYCAAEIWLEYVGYDYWGQGTQVTVSS	high polyreactivity
QVQLVESGGGLVQAGGSLRLSCAASGPIIDFYAMGWSRKAPGKERELVAAISWRGGSTYYADSVKGRFTISRDNAKNSVYLQMNSLKPEDTAVYYCANRFGPRYYWGQGTQVTVSS	low polyreactivity
QVQLVESGGGLVQAGGSLRLSCAASGFTFFHNAMGWYRPAPGKERELVAAITSGGNTYYADSVKGRFTISRDNAKNTVYLQMNSLKPEDTAVYYCAASFWSSGQWYDYWGQGTQVTVSS	high polyreactivity

Sequence	polyreactivity (PSR sort gate)
QVQLVESGGGLVQAGGSLRLSCAASGSIFRPNAMGWYRQAPGKEREFVASISGRVGSTYYADSVKGRFTISRDNAKNTVYLQMYSLKPEDTAVYYCAADSRGGYKRNYWGQGTQVTVSS	high polyreactivity
QVQLVESGGGLVQAGGSLRLSCAASGSIFKVNAMGWYRQAPGKEWELVARTYYADSVKGRFTISRDNAKNTVYLQMNSLKPEDTAVYYCAASRGIYNPYDYWGQGTQVTVSS	low polyreactivity
QVQHVESGGGLVQAGGSLRLSCAASGSIFAHYTMGWYRQAPGKERELVAVISRSGARTYYADSVKGRFTISRDNAKNTVYLQMNSLKPEDTAVYYCAADRNLEEDYWGLGTQVTVSS	low polyreactivity
QVQLVESGGGLVQAGGSLRLSCAASGSTLYKYAMGWYRQSPGKERELVAAISWSGSSTYYADSVKGRFTISRDNAKNTVYLQMNSLKPVDTAVYYCAAYPRPYIGYTDVYVWYEFDYWGQGTQVTVSS	low polyreactivity
QVQLVESGGGLVQAGGSLRLSCAASGFIFDTYAMGWYRQAPGKERELVAAISRSGVRTYYADSVKGRFTISRDNAKNTVYLQMNSLTPEDTAVYYCNAALNRYHFGRAVPGDYWGQGTQVTVSS	high polyreactivity
QVQLVESGGGLLQAGGSLRLSCAASGSTFSRYTMGWYRQAPGKERELVAAISYRGGSTYYADSVKGRFTISRDNAKNTVYLQMNSLKPEDTAVYYCAAEFRVEGSDYDYWGQGTQVTVSS	low polyreactivity
QVQLVESGGGLVQAGGSLRLSCAASGSIFSYYAMGWYRQAPGKERELVATISWSGGSTYYADSVKGRFTISRDNAKNTVYLQMNSLKPEDTAVYYCAARKYGQRYRRDYWGQGTQVTVSS	low polyreactivity
QVQLVESGGGLVQAGGSLRLSSAASGRIFYGYAMGWYRQAPGKERELVAAISWSGGSTYYADSVKWRFTISRDNAKNTVYLQMNSLKPEDTAVYYCARRDRGGYKYDYWGQGTQVTVSS	high polyreactivity
QVQLVESGGGLVQAGGSLRLSCAASGNTFFPYTMGWYRQAPGKERELVAAITWSGVSTYYADSVKGRFTISRDNAKNTVYLQMNSLKPEDTAVYYCAARGPVYVSYPRQYGYWGQGTQVTVSS	high polyreactivity
QVQLVESGGGLVQAGGSLRLSCAASGRTFRVYVMGWYRQAPGKERELVAAIRSDASTNYADSVKGRFTISRDNAKNTVYLQMISLKPEDTAFYYCAARRGKSAGGYGDYYWGQGTQVTVSS	high polyreactivity
QVQLVESGGGLVQAGGSLRLSCAASGSTFQRNAMGWYRQAPGKERELVAAITSRGGSTYYADSVKGRFTISRDNAKNTVSLQMNSLNPEDTGVYYCAALTWARSRNGTYDYWGPGTQVTVSS	high polyreactivity
QVQLVESGGGLVQAGGSLRLSCAASGITFSYALGWYRQAPGKERELVAGITTSGGSTYADSVKGRFTISRDNAKNTVYLQMNSLKPEDTAVYYCAADRSAVQFSAFLEYDYWGQGSQVTVSS	low polyreactivity
QVQLVESGGGLVQAGGSLRLSCAASGYTFKTYAMGWYRQAPGKERELVAAIRTSGGSTYYADSVKGRFTISRDNAKNTVYLQMNSLKPEDTAVYYCAAAFNYYGSLYDYWGQGTQVTVSS	high polyreactivity
QVQLVESGGGLVQARGSLRLSCAASGSIFSANAMGWYRQAPVKERELVAAISSSGNTNYADSVKGRFTISRDNAKNTLYLQMNSLKPEDTAVYYCAVELKQVTPGLGYITLDYWGQGTQVTVSS	low polyreactivity
QVQLVESGGGLVQAGGSLRLSCAASGSIFVVYAMGWSREGPGKERELVAAISWGIGSTYYADSVKGRFTISRDNAKNTVYLQPNSLKPEDTAVYYCAADTDIVLYDYWGQGTQVTVSS	low polyreactivity
QVQLVESGAGLVQAGGSLRLSCAASGSTFESNTMGWYRQAPGKERELVAAISYSGGRTYYADSVKGRFTISRDNAKNTVYLQMNSLKPEDTAVYYCNADLYPYYWYTTGEFGYWGQGTQVTVSS	high polyreactivity
QVQLVESGGGIDQAGGSLRLSCAASGNIFDYYAMGWYRQAPGKEREFVAAISWSGARTYYADSVKGRFTISRDNAKNTVYLQMNRLKPEDTAVYYCAGGQSWRKNDYRYDYWGQGTQVTVSS	high polyreactivity
QVQLVESVGGLVQAGGCLRITCAASGSTSDANAMGWYRTATGKERELVAAITTGGSTNYADSVKGRFTISRDNAKNTVFLQMNSLKPEDTAVFYCAVDLLRMTGDRGHDYWGQGTQVTVSS	low polyreactivity
QVQLVAGGGLVQAGGSLRLSCAASGSIFYSNAMGWYRQAPGKERELVAAISFSGGSTYYADSVKGRFTISRDNAKNTVYLQMNSLKPEDTAVYYCAAEFYKRKFGPFEYWGQGTQVTVSS	low polyreactivity
QVQLVESGGGLVQAGGSLRLSFAASGRIFAYYAMGCYRQAPGKERELVASISRSGGRTYYADSVKGRFTISRDNAKNTVYLQMNSLKPEDTAVYYFNRAVWFKSTVDYWGQGTQVTVSS	high polyreactivity
QVQLVESGGGLVQAGGSLRLSCAASGPTFTPYAMGWYRPAPGKERELVAAISGGGSTNYADSVKGRFTISRDNAKNTVFLQMNSLKPEDTAVYYCAKRVYRGRRMDYWGQGTQVTVSS	high polyreactivity
